Biological target: T7 DNAP (complex of T7 gp5 and Escherichia coli thioredoxin) (bacteriophage T7 | Escherichia coli) (UniProt P00581)
UniProt P00581, sequence (P00581 whole entry, chain 1 of 2): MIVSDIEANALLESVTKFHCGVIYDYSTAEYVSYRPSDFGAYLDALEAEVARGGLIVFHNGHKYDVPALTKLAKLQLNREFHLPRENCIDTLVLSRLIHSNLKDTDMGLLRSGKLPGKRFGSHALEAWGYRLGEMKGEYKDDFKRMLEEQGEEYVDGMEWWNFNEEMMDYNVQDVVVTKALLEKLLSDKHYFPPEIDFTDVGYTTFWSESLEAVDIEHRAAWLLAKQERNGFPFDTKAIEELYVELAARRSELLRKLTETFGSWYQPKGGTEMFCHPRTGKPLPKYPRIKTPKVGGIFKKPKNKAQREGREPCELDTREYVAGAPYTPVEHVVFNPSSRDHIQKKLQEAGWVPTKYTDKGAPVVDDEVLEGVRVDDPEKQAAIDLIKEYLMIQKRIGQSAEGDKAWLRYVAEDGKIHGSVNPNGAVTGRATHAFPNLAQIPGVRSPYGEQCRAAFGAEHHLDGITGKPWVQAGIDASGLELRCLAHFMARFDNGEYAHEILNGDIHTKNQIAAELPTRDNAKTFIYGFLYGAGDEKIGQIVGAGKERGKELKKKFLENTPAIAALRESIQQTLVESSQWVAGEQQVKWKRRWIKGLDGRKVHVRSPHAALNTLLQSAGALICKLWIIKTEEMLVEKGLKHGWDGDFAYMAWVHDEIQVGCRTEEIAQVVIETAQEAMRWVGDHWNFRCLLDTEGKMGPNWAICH
UniProt P00581, sequence (P0AA25 whole entry, chain 2 of 2, further chain): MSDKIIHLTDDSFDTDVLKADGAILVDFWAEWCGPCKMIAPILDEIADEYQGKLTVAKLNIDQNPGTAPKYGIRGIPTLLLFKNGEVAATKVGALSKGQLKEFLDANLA

- Pol/Exo ratio (nucleotides incorporated per nucleotide excised) during leading strand synthesis on minicircle DNA, 150 μM dVTPs and 500 μM dTTP; 50–60% lower than with the WT T7 helicase: 5.7
Substance: C-tail mutant of T7 gp4A′ (T7 HelicaseΔC17) (enzyme)

Source: paper PMC7073461
